# B1: CsTPS3FN (Cannabis sativa) (protein)
# chain: RSANYEPPIWSFDYIQSLSTQYKGESYTRQLNKLKKEVKRMLLRMEINSLALLELIDTLQRLGISYHFKNEINTILKKKYNDNYINNNIITNPNYNNLYATALEFRLLRQHGYTVPQEIFNAFKDKRGKFKTSLSDDIMGVLCLYEASFYAMKHENILEEARIFSTKCLKKYMEKIENEEEKKILLLNDNNINSNLLLINHAFELPLHWRITRSEARWFIDEIYEKKQDMNSTLFEFAKLDFNIVQSTHQEDLQHLSRWWRDCKLGGKLNFARDRLMEAFLWDVGLKFEGEFSYFRRTNARLFVLITIIDDIYDVYGTLEELELFTSAVERWDVKLINELPDYMKMPFFVLHNTINEMGFDVLVEQNFVNIEYLKKSWVDLCKCYLQEAKWYYSGYQPTLEEYTELGWLSIGASVILMHAYFCFTNPITKQDLKSLQLQHHYPNIIKQACLITRLADDLGTSSDELNRGDVPKSIQCYMYDNNATEDEAREHIKFLISETWKDMNKKDEDESCLSENFVEVCKNMARTALFIYENGDGHGSQNSLSKERISTLIITPINIPK
# notes: E. coli BL21(DE3); monomer
# B2: CsTPS20CT (Cannabis sativa) (protein)
# chain: MSNIQVLASSQLSDKIIARPTTKFHPSIWGDRFLHYNISEQDLVCKQEKVEELIQVVKKEILSSNHDQLKLIDNLQRLGLSYHFESEIEKLLEQLSITHHQNHHDLHDASLWFRLLRQHGFNVSSSIFEKFKDEEGNFKESLITDVPGLLSLYEASHLSYVGESILDEALAFTTTHLKAIVANSKDHPLSHQISIVLHRPLRKTIERLHARFYISIYEKDASHNKLLLELAKLDFNLLQCFHKKELSEITRWWKEHEFAKKFPFARDRMVELYFWILGVYYEPKYSRARKLLTKVIALTSITDDIYDAYGTIDELQLLTKAIQRWDINCMDKLKQEYLKTYYKVMLDSYEEFEKELKKEELYKLEYAKEEMKRIIGGYFEEARWLNEGYFPSFDEHLRVSYVSSGNVLLIATSFVGMHDVVTHETLDWLSKDPKIVSASTLLSRFMDDIGSRKFEQKRNHIPSTVDCYMKQYGVSEEEAIKELNKRVDTHWKEINEDFIRPAVVPFPILVRVLNFTKIVDLLYKEGDDQYTNVGKVLKESIAALLIDSIPL
# notes: E. coli BL21(DE3); monomer
# B3: CsTPS16CC (Cannabis sativa) (protein)
# chain: MSSQVLASSQKNDKTQNIIRPTTKFHPPIWGDRFLHYNISEQELEYKEGQVEELKEVVRKEIFHGNNKRNIINVSKQLKLIDDVERLGLSYHFESEIEKKLQHIYEITTNNIDHQDQHYYYSNHDEDLHDVSIRFRLLRQHGFNISSNIFEKFKDESGKFKESLKSDIEGMLSLYEASYLSYVEENILDEALAFTTTNLKLVANKKEHPLSHEISLALYRPLRKTLVRLYARHYISIYEKQPSHNKVLLQFAKLDFNLLQSLHKKELSEISRWWKELDLANKLPFARNRIVELYLWILGVFHEPQFSLARKILIKAISMASVADDIYDAYGTFEELELLTEAILRWDISFIDKLSPDYLKTYYKVFLNSYEECEKDLKKEERYKLHYAKESMKKLIQAYFHEAQWLNQGHFPSFDEHLKVSFVSSGYPMLIETSFVGMQDVKTNQVFEWLSTQPKIFRACTIISRFMDDLVSRKFEQERNHVPSTVDCYMKQYGVSEQEACDELNKQVVNLWKEINQEFLRPTSMPSSILVRILNFTKVLDIIYKEGDGYTHVGKLVKDSVAALLIDPIPL
# notes: E. coli BL21(DE3); monomer
# B4: CsTPS5FN (Cannabis sativa) (protein)
# chain: MSLSGLISTTTFKEQPAIVRRSGNYKPPLWDAHFIQSLQVIYTEESYGKRINELKEDVRRILEKEAENPLVKLEQINDLSRLGISYHFEDQIKAILNLTYNNNNALWKKDNLYATALHFKLLRQYGFNPVSSEIFNAFKDEKKEFKESLSKDVKGMVCLYEASFYSFRGEPILDEARDFTTKHLKQYLMMTRQGQNVDHDDDNDLMVKLVEHALELPVHWRMKRLEARWFIDMYAEMSHHHHMNSTFLQLAKLDFNVVQSTYQEDLKHVVRWWKTTSLGERLPFARDRIVEIFLWSVGLKFEPQFRYCRKMLTKIGQLVTTMDDIFDVYGTLDELSLFQHALGRWDINTIDQLPDYMKIFFLATYNVVNEMAYDVLKQNGILIIKYLKKTWTDLCKCYMLEANWYHSGYTPSLEEYIKNGWISIAEPLILVNLYCLITNPIKEDDIDCLLQYPTFIRISGIIARLVDDLGTSSDELKRGDNPKSIQCYMKENGICDEKNGREHIRNLISETWKEMNEARVGESPFSQAFIETAIDFVRTAMMIYQKEQDGVGTNIDHYTKDGIISLFFTSIPI
# notes: E. coli BL21(DE3); monomer
# B5: CsTPS1SK (Cannabis sativa) (protein)
# chain: RSANYGPPIWSFDFVQSLPIQYKGESYTSRLNKLEKDVKRMLIGVENSLAQLELIDTIQRLGISYRFENEIISILKEKFTNNNNNPNPINYDLYATALQFRLLRQYGFEVPQEIFNNFKNHKTGEFKANISNDIMGALGLYEASFHGKKGESILEEARIFTTKCLKKYKLMSSSNNNNMTLISLLVNHALEMPLQWRITRSEAKWFIEEIYERKQDMNPTLLEFAKLDFNMLQSTYQEELKVLSRWWKDSKLGEKLPFVRDRLVECFLWQVGVRFEPQFSYFRIMDTKLYVLLTIIDDMHDIYGTLEELQLFTNALQRWDLKELDKLPDYMKTAFYFTYNFTNELAFDVLQEHGFVHIEYFKKLMVELCKHHLQEAKWFYSGYKPTLQEYVENGWLSVGGQVILMHAYFAFTNPVTKEALECLKDGHPNIVRHASIILRLADDLGTLSDELKRGDVPKSIQCYMHDTGASEDEAREHIKYLISESWKEMNNEDGNINSFFSNEFVQVKQNLGRASQMIYQYGDGHASQNNLSKERVLGLIITPIPM
# notes: E. coli BL21(DE3); monomer
# How the values were obtained:
# Assay in all cases: malachite green assay coupled to inorganic pyrophosphatase
# Details in all cases: pH 7.5, 5 mM MgCl2, 37 °C, 30 min
# CsTPS12PK = target: T1, CsTPS12PK (Cannabis sativa, UniProt A0A1V0QSF4); type: biochemical
# T1 construct: gene TPS33PK; printed as CsTPS12PK/CsTPS33PK; E. coli; monomer
# From the text: malachite green assay coupled to inorganic pyrophosphatase on CsTPS12PK
# CsTPS13PK = target: T2, CsTPS13PK (Cannabis sativa, UniProt A0A1V0QSG1); type: biochemical
# T2 construct: gene TPS13PK; E. coli BL21(DE3); monomer
# From the text: malachite green assay coupled to inorganic pyrophosphatase on CsTPS13PK
# [1] = substrate: CC(C)=CCC/C(C)=C/COP(=O)(O)OP(=O)(O)O; type: biochemical, Cannabis sativa
# From the text: malachite green assay coupled to inorganic pyrophosphatase on CsTPS3FN
# [2] = substrate: CC(C)=CCC/C(C)=C/CC/C(C)=C/CO[P@@](=O)(O)OP(=O)(O)O; type: biochemical, Cannabis sativa
# From the text: malachite green assay coupled to inorganic pyrophosphatase on CsTPS20CT
# [3] = substrate: CC(C)=CCC/C(C)=C/CC/C(C)=C/CO[P@@](=O)(O)OP(=O)(O)O; type: biochemical, Cannabis sativa; remark: listed apart in the source
# From the text: malachite green assay coupled to inorganic pyrophosphatase on CsTPS16CC
# [4] = substrate: CC(C)=CCC/C(C)=C/COP(=O)(O)OP(=O)(O)O; type: biochemical, Cannabis sativa; remark: listed apart in the source
# [5] = substrate: CC(C)=CCC/C(C)=C/COP(=O)(O)OP(=O)(O)O; type: biochemical, Cannabis sativa; remark: listed apart in the source
# From the text: malachite green assay coupled to inorganic pyrophosphatase on CsTPS1SK
# T1 sequence (A0A1V0QSF4 34-615): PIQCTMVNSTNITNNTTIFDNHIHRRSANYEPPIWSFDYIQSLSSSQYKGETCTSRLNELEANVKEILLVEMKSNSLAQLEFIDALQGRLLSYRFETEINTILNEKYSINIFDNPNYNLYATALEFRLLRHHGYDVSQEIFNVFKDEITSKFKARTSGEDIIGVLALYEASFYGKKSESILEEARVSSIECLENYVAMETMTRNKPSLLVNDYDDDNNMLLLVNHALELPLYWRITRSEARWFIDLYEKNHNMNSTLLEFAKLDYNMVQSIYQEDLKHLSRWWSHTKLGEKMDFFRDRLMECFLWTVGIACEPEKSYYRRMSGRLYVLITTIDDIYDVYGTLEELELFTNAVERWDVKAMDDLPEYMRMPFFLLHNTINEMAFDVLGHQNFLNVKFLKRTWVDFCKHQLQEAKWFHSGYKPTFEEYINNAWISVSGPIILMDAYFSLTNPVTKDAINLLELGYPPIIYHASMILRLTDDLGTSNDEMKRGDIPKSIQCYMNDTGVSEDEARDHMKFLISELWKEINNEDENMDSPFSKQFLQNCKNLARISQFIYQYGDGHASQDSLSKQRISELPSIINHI
# T2 sequence (A0A1V0QSG1 41-640): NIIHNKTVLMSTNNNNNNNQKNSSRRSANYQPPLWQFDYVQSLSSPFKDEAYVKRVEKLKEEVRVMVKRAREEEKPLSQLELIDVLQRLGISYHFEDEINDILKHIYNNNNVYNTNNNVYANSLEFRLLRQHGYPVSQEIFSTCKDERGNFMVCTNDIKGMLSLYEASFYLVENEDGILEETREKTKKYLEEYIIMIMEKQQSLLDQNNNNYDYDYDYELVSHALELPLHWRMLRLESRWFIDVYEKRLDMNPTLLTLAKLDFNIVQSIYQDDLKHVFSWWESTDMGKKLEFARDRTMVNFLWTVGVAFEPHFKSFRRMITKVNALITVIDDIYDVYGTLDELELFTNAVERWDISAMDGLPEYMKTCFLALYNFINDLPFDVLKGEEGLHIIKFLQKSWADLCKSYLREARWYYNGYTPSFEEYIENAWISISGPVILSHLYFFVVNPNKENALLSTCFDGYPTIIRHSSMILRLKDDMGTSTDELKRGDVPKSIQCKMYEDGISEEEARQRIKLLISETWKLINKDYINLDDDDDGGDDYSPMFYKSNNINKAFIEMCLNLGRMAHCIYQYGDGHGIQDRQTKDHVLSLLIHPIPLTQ
molecule,measurement,setting,value
"CC(C)=CCC/C(C)=C/COP(=O)(O)OP(=O)(O)O [GPP, geranyl diphosphate]",Km,CsTPS12PK,41.8 ± 8.29 µM
same,Km,CsTPS13PK,13 ± 1.23 µM
B1,Km,[1],4.569 ± 0.411 µM
B2,Km,[2],16.86 ± 6.42 µM
B3,Km,[3],38.43 ± 2.83 µM
B4,Km,[4],23.3 ± 1.34 µM
B5,Km,[5],7.809 ± 0.678 µM
